Molecular target: T1, RGSZ2 RH region (RGS box), recombinant, GST-free (murine)
T1 sequence (Q9QZB0 whole entry, looked up): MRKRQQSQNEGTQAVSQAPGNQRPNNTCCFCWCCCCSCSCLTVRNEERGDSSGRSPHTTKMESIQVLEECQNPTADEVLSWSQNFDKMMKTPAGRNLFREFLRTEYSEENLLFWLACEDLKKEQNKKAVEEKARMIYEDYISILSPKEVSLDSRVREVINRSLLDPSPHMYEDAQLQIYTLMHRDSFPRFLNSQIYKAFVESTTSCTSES

k cat of GTP hydrolysis by Gαi, single turnover, with RGSZ2 RH and free SUMO1 (4.0 with RH without SUMO1; 2.2 for Gαi alone): 2.5 min⁻¹
Substance: SUMO1 (Small Ubiquitin-like MOdifier 1) (from UniProt P63165 1-97) (natural protein)

— paper PMC3232247
